In patent publication US20240116985A1 (published 2024):
Starred links: 1 amine or outer side, 2 acyl side, 3 side chain; linkers in the order of their positions; H or OH if unused. Positions of bridges follow the written chain, without caps; N, C: chain ends. Non-standard residues stand in square brackets, D forms with d. Primed or numbered codes have the meaning given here. *: point of attachment. PyrS2″ = (S)-3-amino-1-((pent-4-en-1-yloxy)carbonyl)pyrrolidine-3-carboxylic acid (stapling residue), C=CCCCOC(=O)N1CC[C@@](N[*:1])(C(=O)[*:2])C1; B5(24) = 2-amino-2-(pent-4-en-1-yl)hept-6-enoic acid, 2,2-bis(4-pentenyl)glycine (stitching residue), C=CCCCC(CCCC=C)(N[*:1])C(=O)[*:2]; B5(4) = 2,2-bis(4-pentenyl)glycine = 2-amino-2-(pent-4-en-1-yl)hept-6-enoic acid (stitching residue), C=CCCCC(CCCC=C)(N[*:1])C(=O)[*:2]; B5(5) = 2,2-bis(4-pentenyl)glycine, 2-amino-2-(pent-4-en-1-yl)hept-6-enoic acid (stitching residue), C=CCCCC(CCCC=C)(N[*:1])C(=O)[*:2]; B5(33) = 2-amino-2-(pent-4-en-1-yl)hept-6-enoic acid (bis-pentenylglycine, two olefin side chains), C=CCCCC(CCCC=C)(N[*:1])C(=O)[*:2]; PyrS2 = (S)-3-amino-1-((pent-4-en-1-yloxy)carbonyl)pyrrolidine-3-carboxylic acid, C=CCCCOC(=O)N1CC[C@@](N[*:1])(C(=O)[*:2])C1; B5(3) = 2,2-bis(4-pentenyl)glycine (stitching residue), C=CCCCC(CCCC=C)(N[*:1])C(=O)[*:2]; Phe(3-CF3) = N[C@@H](Cc1cccc(C(F)(F)F)c1)C(=O)O; Phe(3-OMe) = COc1cccc(C[C@H](N)C(=O)O)c1; Phe(2-Cl) = N[C@@H](Cc1ccccc1Cl)C(=O)O; 1Nal = N[C@@H](Cc1cccc2ccccc12)C(=O)O; Bta = N[C@@H](Cc1csc2ccccc12)C(=O)O; Lys(iPr) = CC(C)NCCCC[C@H](N)C(=O)O; αAllylPro = C=CC[C@@]1(C(=O)O)CCCN1; tBuAla = CC(C)(C)C[C@H](N)C(=O)O; Cha = N[C@@H](CC1CCCCC1)C(=O)O; Thr(ol) = C[C@@H](O)[C@H](N)CO; Leu(ol) = CC(C)C[C@H](N)CO; Ms = CS(=O)(=O)*

T1: B-cat-Halo (beta-catenin HaloTag NanoBRET construct expressed in HEK293 cells) (Homo sapiens (Human), UniProt P35222 1-781)
T1 sequence: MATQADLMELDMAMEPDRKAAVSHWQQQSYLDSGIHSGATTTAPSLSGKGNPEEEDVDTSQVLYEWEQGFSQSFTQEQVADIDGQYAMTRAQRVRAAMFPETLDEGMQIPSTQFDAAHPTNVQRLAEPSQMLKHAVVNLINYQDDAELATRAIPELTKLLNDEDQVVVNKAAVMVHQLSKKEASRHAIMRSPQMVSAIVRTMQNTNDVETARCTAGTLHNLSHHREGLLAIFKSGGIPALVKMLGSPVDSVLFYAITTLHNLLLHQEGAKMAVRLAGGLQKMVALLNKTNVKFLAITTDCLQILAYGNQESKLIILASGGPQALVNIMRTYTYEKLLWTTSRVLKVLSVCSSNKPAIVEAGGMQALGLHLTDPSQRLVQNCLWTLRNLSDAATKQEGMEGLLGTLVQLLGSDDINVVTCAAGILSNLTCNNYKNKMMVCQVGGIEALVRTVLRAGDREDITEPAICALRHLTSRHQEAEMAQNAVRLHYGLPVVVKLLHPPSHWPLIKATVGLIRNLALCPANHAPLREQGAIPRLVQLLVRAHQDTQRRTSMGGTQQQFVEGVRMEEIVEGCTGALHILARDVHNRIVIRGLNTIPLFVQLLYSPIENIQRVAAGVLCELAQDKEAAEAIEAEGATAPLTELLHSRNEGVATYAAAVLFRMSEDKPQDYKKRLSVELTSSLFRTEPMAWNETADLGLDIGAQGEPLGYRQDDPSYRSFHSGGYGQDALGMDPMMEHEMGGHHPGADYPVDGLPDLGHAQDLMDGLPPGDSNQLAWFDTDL

T2: B-cat-Halo (UniProt P35222 1-781)
T2 sequence (looked up): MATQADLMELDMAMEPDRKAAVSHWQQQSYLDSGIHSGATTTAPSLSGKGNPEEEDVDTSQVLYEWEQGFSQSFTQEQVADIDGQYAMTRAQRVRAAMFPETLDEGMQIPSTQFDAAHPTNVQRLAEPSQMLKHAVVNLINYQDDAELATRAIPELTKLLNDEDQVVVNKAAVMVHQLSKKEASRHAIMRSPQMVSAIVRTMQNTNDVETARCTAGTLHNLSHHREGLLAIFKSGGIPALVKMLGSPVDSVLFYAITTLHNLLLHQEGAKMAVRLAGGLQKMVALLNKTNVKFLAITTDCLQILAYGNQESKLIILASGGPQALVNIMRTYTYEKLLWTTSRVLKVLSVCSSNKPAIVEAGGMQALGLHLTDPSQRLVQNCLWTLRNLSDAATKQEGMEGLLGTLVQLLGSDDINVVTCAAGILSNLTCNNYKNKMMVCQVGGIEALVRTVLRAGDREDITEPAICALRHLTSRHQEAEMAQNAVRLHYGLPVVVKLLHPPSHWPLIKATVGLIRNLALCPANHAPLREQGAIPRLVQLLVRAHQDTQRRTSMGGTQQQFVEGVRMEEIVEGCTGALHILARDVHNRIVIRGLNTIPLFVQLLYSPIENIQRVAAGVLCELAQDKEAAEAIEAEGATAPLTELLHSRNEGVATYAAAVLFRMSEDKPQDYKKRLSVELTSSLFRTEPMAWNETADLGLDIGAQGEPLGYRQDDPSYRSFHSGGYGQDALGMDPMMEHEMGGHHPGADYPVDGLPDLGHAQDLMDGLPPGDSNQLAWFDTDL

B1: I-1260 (peptide)
peptide: XDXXDDAAFTXFXQ
modifications: not fully specified; MeSO2-PL3-Asp-Npg-B5-Asp-Asp-Ala-Ala-Phe-Thr-S8-2C1F-BztA-Gln-NH2; stapled by olefin metathesis (PL3-B5 and B5-S8)
B2: I-1258 (peptide)
peptide: Ms-[αAllylPro]D[tBuAla][B5(33)]DDAAFN[PyrS2][Phe(2-Cl)][Bta][dT]-NH2
modifications: staple 1-4, 4-11; not fully specified; printed as MeSO2-PL3-Asp-Npg-B5-Asp-Asp-Ala-Ala-Phe-Asn-PyrS2-2C1F-BztA-dThr-NH2
B3: I-1123 (peptide)
peptide: Ac-[αAllylPro]D[tBuAla][B5(3)]DDAAFL[PyrS2″][Phe(2-Cl)][Bta]Q-NH2
modifications: staple 1-4, 4-11 (inferred); not fully specified (residue 9); printed as Ac-PL3-Asp-Npg-B5-Asp-Asp-Ala-Ala-4F3MeF-Leu-PyrS2-2C1F-BztA-Gln-NH2
B4: I-1126 (peptide)
peptide: Ac-[αAllylPro]D[Cha][B5(3)]DDAAFS[PyrS2″]F[Bta]Q-NH2
modifications: staple 1-4, 4-11 (inferred); not fully specified (residue 9); printed as Ac-PL3-Asp-Cha-B5-Asp-Asp-Ala-Ala-4F3MeF-Ser-PyrS2-Phe-BztA-Gln-NH2

molecular target: T1, B-cat-Halo (beta-catenin HaloTag …); assay: cell-based or functional assay

Binder | NanoBRET Abs IC50
Ac-[αAllylPro]D[tBuAla][B5(4)]DDAAFT[PyrS2″][Phe(2-Cl)][Bta][Leu(ol)] (staple 1-4, 4-11) [I-1247] | > 20 µM
Ac-[αAllylPro]D[tBuAla][B5(4)]DDAAFL[PyrS2″][Phe(2-Cl)][Bta][Thr(ol)] (staple 1-4, 4-11) [I-1249] | 25.2 µM
B1 | 24 µM
B2 | > 20 µM
Ac-[αAllylPro]D[tBuAla][B5(5)]DTAA[1Nal]T[PyrS2″]F[Bta]S-NH2 (staple 1-4, 4-11) [I-1266] | > 20 µM
Ac-[αAllylPro]D[tBuAla][B5(33)]DTLAFT[PyrS2]F[Bta]S-NH2 (staple 1-4, 4-11) [I-1264] | > 20 µM
Ac-[αAllylPro]D[tBuAla][B5(33)]DTAAFT[PyrS2]F[Bta]S-NH2 (staple 1-4, 4-11) [I-1263] | 20 µM

molecular target: T2, B-cat-Halo; assay: cell-based or functional assay

Binder | NanoBRET Abs IC50
Ac-[αAllylPro]D[Cha][B5(3)]DDAA[Phe(3-OMe)]S[PyrS2″]F[Bta]Q-NH2 (staple 1-4, 4-11 (inferred)) [I-1124] | > 20 µM
Ac-[αAllylPro]D[Cha][B5(3)]DDAA[Phe(3-CF3)]S[PyrS2″]F[Bta]Q-NH2 (staple 1-4, 4-11 (inferred)) [I-1125] | > 20 µM
B3 | 28.5 µM
Ac-[αAllylPro]D[Cha][B5(24)]DDAAFS[PyrS2″][Phe(2-Cl)][Bta][dT]-NH2 (staple 1-4, 4-11) [I-1136] | 14.9 µM
Ac-[αAllylPro]D[tBuAla][B5(24)]DDA[Lys(iPr)]FN[PyrS2″][Phe(2-Cl)][Bta]Q-NH2 (staple 1-4, 4-11) [I-1132] | > 20 µM
Ac-[αAllylPro]D[tBuAla][B5(3)]DDAA[Phe(3-CF3)]L[PyrS2″]F[Bta]Q-NH2 (staple 1-4, 4-11 (inferred)) [I-1128] | 8.1 µM
Ac-[αAllylPro]D[tBuAla][B5(24)]DDAAFN[PyrS2″][Phe(2-Cl)][Bta][Lys(iPr)]-NH2 (staple 1-4, 4-11) [I-1130] | 7.6 µM
Ac-[αAllylPro]D[tBuAla][B5(3)]DDAA[Phe(3-OMe)]L[PyrS2″]F[Bta]Q-NH2 (staple 1-4, 4-11 (inferred)) [I-1127] | 5.4 µM
B4 | 26.8 µM
Ac-[αAllylPro]D[tBuAla][B5(24)]DD[Lys(iPr)]AFN[PyrS2″][Phe(2-Cl)][Bta]Q-NH2 (staple 1-4, 4-11) [I-1131] | 18.8 µM
